Reference: US20060024313A1, “Agents that disrupt dimer formation in DPP-IV family of prolyl dipeptidases” (priority 2004, published 2006)
Where “and” joins values, the source holds several entries; their conditions need not be identical. Equal entries are not always repeated. Entries after “also recorded” stand apart in the source; their conditions may differ. Marks after values point to notes of the source that are not given here.

Tests used:
[1] = Size exclusion chromatography (gel filtration, Superdex 200); format: physicochemical; details: gel filtration experiments; PBS buffer
Protocol: Chemical crosslinking in intact cells was conducted as described (24). Size exclusion chromatography was conducted at 4° C. Purified proteins (0.5 ml at a concentration of 5 uM) were applied to a Superdex 200 10/30 column (10×300-310 mm) pre-equilibrated with PBS. The sample was eluted with the same buffer at 0.3 ml/min and 0.25 ml fractions were collected. The Superdex 200 10/30 column was calibrated with the Stokes Radii of ferritin (6.1 nm), catalase (5.22 nm), aldolase (4.81 nm), albumin (3.55 nm), ovalbumin (3.05 nm) and chymotrypsinogen A (2.09 nm) from Amersham-Pharmacia.

[2] = Analytical ultracentrifugation (AUC): sedimentation velocity and equilibrium; format: physicochemical; details: for quaternary structure (monomer/dimer) by AUC: PBS buffer where stated; for Stokes' radius (Rs): sedimentation velocity experiments
Protocol: Buffer was changed using an Amicon device and DPP-IV proteins were allowed to equilibrate for at least four hours or longer as indicated in the text at 25° C. after buffer changes. The sedimentation coefficients (S) of the enzyme were estimated by a Beckman-Coulter XL-A analytical ultracentrifuge with an An60Ti rotor as described (25). Sedimentation velocity analysis was performed at 40,000 rpm at 25° C. with standard double sector aluminum centerpieces. The UV absorption of the cells was scanned every 5 min for 4 hours. Sedimentation equilibrium was performed at 20° C. with six-channel open centerpieces and then centrifuged at 12,000 rpm for 12 hours. The data from both sedimentation velocity and sedimentation experiments were analyzed with the SedFit version 8.7 program to obtain molecular weights and sedimentation coefficients (25). Sednterp version 1.07 program is used to obtain solvent density, viscosity, Stokes' radius (Rs) and anhydrous frictional ratio (f/fo).

DPP-IV = experiment: Kinetic constant measurements with chromogenic substrate H-Gly-Pro-pNA; format: biochemical, human
Protocol: To measure the kinetic parameters, the chromogenic substrate H-Gly-Pro-pNA was utilized to initiate the reaction, which was monitored at OD 405 nm as a function of time (21). […] The initial rate was measured with less than 10% substrate depletion for the first 10 to 300 seconds. The steady-state parameters, kcat and Km, were determined from initial velocity measurements at 0.5 to 5 Km of the substrate concentrations. Lineweaver-Burk plots were analyzed using non-linear regression of the Michaelis-Menten equation. Correlation coefficients better than 0.99 were obtained throughout.

[3] = High salt buffer, substrate H-Gly-Pro-pNA
[4] = PBS buffer, substrate H-Gly-Pro-pNA
[5] = compared with wild type rDPP-IV
[6] = values in text, monomeric mutants

Molecule | Stokes' radius (Rs) [1] | Sedimentation coefficient (s20, w) ([2]; High salt buffer) [S] | quaternary structure (subunit composition) by sedimentation velocity ([2]; High salt buffer (0.5 M sodium sulfate)) | Anhydrous frictional ratio (f/fo) ([2]; PBS buffer) | Sedimentation coefficient (s20, w) ([2]; PBS buffer) [S] | quaternary structure (monomer/dimer) by AUC [2] | Stokes' radius (Rs) ([2]; High salt buffer) | Stokes' radius (Rs) ([2]; PBS buffer) | Km (DPP-IV; [3]) [µM] | kcat (DPP-IV; [3]) [s⁻¹] | Km (DPP-IV; [4]) [µM] | kcat (DPP-IV; [4]) [s⁻¹] | decrease in kcat (DPP-IV; [5]) [fold] | increase in Km (DPP-IV; [5]) [fold] | AUC analysis or catalytic activities in low salt buffer (DPP-IV; low salt buffer compared to PBS buffer (data not shown)) | Km (DPP-IV; [6]) [µM] | kcat (DPP-IV; [6]) [S^−1]
H750E: DPP-IV mutant, H750 mutated to Glu; monomer (protein) SRKTYTLTDYLKNTYRLKLYSLRWISDHEYLYKQENNILVFNAEYGNSSVFLENSTFDEFGHSINDYSISPDGQFILLEYNYVKQWRHSYTASYDIYDLNKRQLITEERIPNNTQWVTWSPVGHKLAYVWNNDIYVKIEPNLPSYRITWTGKEDIIYNGITDWVYEEEVFSAYSALWWSPNGTFLAYAQFNDTEVPLIEYSFYSDESLQYPKTVRVPYPKAGAVNPTVKFFVVNTDSLSSVTNATSIQITAPASMLIGDHYLCDVTWATQERISLQWLRRIQNYSVMDICDYDESSGRWNCLVARQHIEMSTTGWVGRFRPSEPHFTLDGNSFYKIISNEEGYRHICYFQIDKKDCTFITKGTWEVIGIEALTSDYLYYISNEYKGMPGGRNLYKIQLSDYTKVTCLSCELNPERCQYYSVSFSKEAKYYQLRCSGPGLPLYTLHSSVNDKGLRVLEDNSALDKMLQNVQMPSKKLDFIILNETKFWYQMILPPHFDKSKKYPLLLDVYAGPCSQKADTVFRLNWATYLASTENIIVASFDGRGSGYQGDKIMHAINRRLGTFEVEDQIEAARQFSKMGFVDNKRIAIWGWSYGGYVTSMVLGSGSGVFKCGIAVAPVSRWEYYDSVYTERYMGLPTPEDNLDHYRNSTVMSRAENFKQVEYLLIHGTADDNVHFQQSAQISKALVDVGVDFQAMWYTDEDHGIASSTAHQEIYTHMSHFIKQCFSLP | 4.6 nm and 4.6^a nm | 3.3 | monomer | 1.3 | 5.5 | consists only of monomer; also recorded: nearly exclusive monomers | 3.7^b nm | 4.0^b nm | 1090 | 2.1 | 956 | 2.6 | 30 | 10 | no differences |  | 
Y248A: DPP-IV propeller loop mutant, Y248 substituted with Alanine (protein) SRKTYTLTDYLKNTYRLKLYSLRWISDHEYLYKQENNILVFNAEYGNSSVFLENSTFDEFGHSINDYSISPDGQFILLEYNYVKQWRHSYTASYDIYDLNKRQLITEERIPNNTQWVTWSPVGHKLAYVWNNDIYVKIEPNLPSYRITWTGKEDIIYNGITDWVYEEEVFSAYSALWWSPNGTFLAYAQFNDTEVPLIEYSFYSDESLQAPKTVRVPYPKAGAVNPTVKFFVVNTDSLSSVTNATSIQITAPASMLIGDHYLCDVTWATQERISLQWLRRIQNYSVMDICDYDESSGRWNCLVARQHIEMSTTGWVGRFRPSEPHFTLDGNSFYKIISNEEGYRHICYFQIDKKDCTFITKGTWEVIGIEALTSDYLYYISNEYKGMPGGRNLYKIQLSDYTKVTCLSCELNPERCQYYSVSFSKEAKYYQLRCSGPGLPLYTLHSSVNDKGLRVLEDNSALDKMLQNVQMPSKKLDFIILNETKFWYQMILPPHFDKSKKYPLLLDVYAGPCSQKADTVFRLNWATYLASTENIIVASFDGRGSGYQGDKIMHAINRRLGTFEVEDQIEAARQFSKMGFVDNKRIAIWGWSYGGYVTSMVLGSGSGVFKCGIAVAPVSRWEYYDSVYTERYMGLPTPEDNLDHYRNSTVMSRAENFKQVEYLLIHGTADDNVHFQQSAQISKALVDVGVDFQAMWYTDEDHGIASSTAHQHIYTHMSHFIKQCFSLP |  |  |  |  |  | resulted in monomers; also recorded: monomer |  |  |  |  |  |  |  |  |  | 7 | 0.01
F713R: DPP-IV mutant, F713 substituted with Arginine (protein) SRKTYTLTDYLKNTYRLKLYSLRWISDHEYLYKQENNILVFNAEYGNSSVFLENSTFDEFGHSINDYSISPDGQFILLEYNYVKQWRHSYTASYDIYDLNKRQLITEERIPNNTQWVTWSPVGHKLAYVWNNDIYVKIEPNLPSYRITWTGKEDIIYNGITDWVYEEEVFSAYSALWWSPNGTFLAYAQFNDTEVPLIEYSFYSDESLQYPKTVRVPYPKAGAVNPTVKFFVVNTDSLSSVTNATSIQITAPASMLIGDHYLCDVTWATQERISLQWLRRIQNYSVMDICDYDESSGRWNCLVARQHIEMSTTGWVGRFRPSEPHFTLDGNSFYKIISNEEGYRHICYFQIDKKDCTFITKGTWEVIGIEALTSDYLYYISNEYKGMPGGRNLYKIQLSDYTKVTCLSCELNPERCQYYSVSFSKEAKYYQLRCSGPGLPLYTLHSSVNDKGLRVLEDNSALDKMLQNVQMPSKKLDFIILNETKFWYQMILPPHFDKSKKYPLLLDVYAGPCSQKADTVFRLNWATYLASTENIIVASFDGRGSGYQGDKIMHAINRRLGTFEVEDQIEAARQFSKMGFVDNKRIAIWGWSYGGYVTSMVLGSGSGVFKCGIAVAPVSRWEYYDSVYTERYMGLPTPEDNLDHYRNSTVMSRAENFKQVEYLLIHGTADDNVHRQQSAQISKALVDVGVDFQAMWYTDEDHGIASSTAHQHIYTHMSHFIKQCFSLP |  |  |  |  |  | monomeric DPP-IV; also recorded: monomers |  |  |  |  |  |  |  |  |  | 784 | 2.3
H750A monomer: monomer of H750A DPP-IV separated by gel filtration (protein) SRKTYTLTDYLKNTYRLKLYSLRWISDHEYLYKQENNILVFNAEYGNSSVFLENSTFDEFGHSINDYSISPDGQFILLEYNYVKQWRHSYTASYDIYDLNKRQLITEERIPNNTQWVTWSPVGHKLAYVWNNDIYVKIEPNLPSYRITWTGKEDIIYNGITDWVYEEEVFSAYSALWWSPNGTFLAYAQFNDTEVPLIEYSFYSDESLQYPKTVRVPYPKAGAVNPTVKFFVVNTDSLSSVTNATSIQITAPASMLIGDHYLCDVTWATQERISLQWLRRIQNYSVMDICDYDESSGRWNCLVARQHIEMSTTGWVGRFRPSEPHFTLDGNSFYKIISNEEGYRHICYFQIDKKDCTFITKGTWEVIGIEALTSDYLYYISNEYKGMPGGRNLYKIQLSDYTKVTCLSCELNPERCQYYSVSFSKEAKYYQLRCSGPGLPLYTLHSSVNDKGLRVLEDNSALDKMLQNVQMPSKKLDFIILNETKFWYQMILPPHFDKSKKYPLLLDVYAGPCSQKADTVFRLNWATYLASTENIIVASFDGRGSGYQGDKIMHAINRRLGTFEVEDQIEAARQFSKMGFVDNKRIAIWGWSYGGYVTSMVLGSGSGVFKCGIAVAPVSRWEYYDSVYTERYMGLPTPEDNLDHYRNSTVMSRAENFKQVEYLLIHGTADDNVHFQQSAQISKALVDVGVDFQAMWYTDEDHGIASSTAHQAIYTHMSHFIKQCFSLP | 4.6^a nm | 3.3 |  | 1.3 | 5.5 |  | 3.7^b nm | 4.1^b nm |  |  | 64 | 1.4 | 60 |  |  |  | 
